Test [1] deals with NpF2164g6 (1038–1206), holo-protein, not biotinylated. In words: thermal reversion kinetics (UV-vis); observed thermal reversion rate of NpF2164g6 against binder concentration, gives Kd,L of the light (Pg) state; 25 °C, PBS pH 7.2.
Test [2] concerns the target Biotinylated NpF2164g6 (1038–1206), Avi-tagged holo-protein. Description: ELISA; purified biotinylated NpF2164g6 immobilised, purified FLAG-tagged binders, red-light conditions (Pg state).
The target of test [3] is T1, NpF2164g6 (1038–1206), holo-protein, not biotinylated (phycocyanobilin (PCB) chromophore bound).
T1 chain: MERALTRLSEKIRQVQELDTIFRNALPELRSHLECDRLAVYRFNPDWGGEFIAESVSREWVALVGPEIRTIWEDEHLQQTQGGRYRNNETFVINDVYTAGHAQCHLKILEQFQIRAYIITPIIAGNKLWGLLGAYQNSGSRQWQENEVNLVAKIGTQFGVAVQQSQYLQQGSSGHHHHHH
In words: Pr-state (dark), from thermal reversion rate.

For test [4], the target named is Biotinylated NpF2164g6 (1038–1206), Avi-tagged holo-protein. In words: ELISA; purified biotinylated NpF2164g6 immobilised, purified FLAG-tagged binders, dark-adapted (Pr state).
Test [5] addresses T1, NpF2164g6 (1038–1206), holo-protein, …. In words: dark state (Pr), thermal reversion.
Test [6] concerns the target NpF2164g6 (1038–1206), holo-protein, not biotinylated.
Test [7] shares this target. Description: other fluorescence titration; Pr (dark) state fluorescence of NpF2164g6 against binder concentration, 1:1 binding model, gives Kd,D; 25 °C, PBS pH 7.2.
In test [8] the target is T2, NpF2164g6 (1052–1206), N-terminal truncation (phycocyanobilin (PCB) chromophore linked to Cys90 (construct numbering); 15N label for NMR).
T2 chain: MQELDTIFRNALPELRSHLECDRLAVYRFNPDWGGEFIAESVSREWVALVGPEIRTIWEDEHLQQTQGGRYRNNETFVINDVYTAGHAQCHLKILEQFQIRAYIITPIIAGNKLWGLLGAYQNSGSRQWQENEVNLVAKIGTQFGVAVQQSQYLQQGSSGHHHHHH
In words: light state (Pg), thermal reversion.

Test [9] deals with T2, NpF2164g6 (1052–1206), N-terminal …. In words: dark state (Pr), thermal reversion.

Numbering of substitutions follows the chain as printed. Some results are limits rather than exact numbers.

In article PMC12856669 (2026) one finds Kd, SEAP reporter activity in stably transfected CHO-K1 cells (NpF2164g6-FUS-VP16-NLS and E-BNp-Red-1.2-NLS), dark against 660 nm illumination for 24 h, bulk cell culture and SEAP reporter activity in stably transfected CHO-K1 cells (NpF2164g6-FUS-VP16-NLS and E-BNp-Red-1.2-NLS), dark against 660 nm illumination for 24 h, individual clones data, which are given here for 2 molecules.

Sequence of Biotinylated NpF2164g6 (1038–1206), Avi-tagged holo-protein (main, as listed by the source): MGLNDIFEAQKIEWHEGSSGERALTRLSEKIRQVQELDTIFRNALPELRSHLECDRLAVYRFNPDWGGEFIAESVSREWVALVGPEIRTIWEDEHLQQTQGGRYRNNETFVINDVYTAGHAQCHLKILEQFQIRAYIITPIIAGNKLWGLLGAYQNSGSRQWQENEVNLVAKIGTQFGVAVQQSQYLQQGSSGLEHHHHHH

B1: BNp-Red-1.2 (designed binder)
chain: MKLATIDQWLLKNAKEDAIAELKKAGITADAYFNWINNAWDVDYVNYRKNKILKAHAGSSGLEHHHHHH
For B1, the Kd in test [1] is over 30 µM; in test [2] it was over 100 µM; in test [3], 3.7 µM; in [4], 0.6 µM; in test [5], 3.7 µM; in test [7], 3 µM. The SEAP reporter activity in stably transfected CHO-K1 cells (NpF2164g6-FUS-VP16-NLS and E-BNp-Red-1.2-NLS), dark against 660 nm illumination for 24 h, bulk cell culture in test [6] is 24 fold. In addition, the SEAP reporter activity in stably transfected CHO-K1 cells (NpF2164g6-FUS-VP16-NLS and E-BNp-Red-1.2-NLS), dark against 660 nm illumination for 24 h, individual clones in test [6] was over 30 fold.

B2: BNp-Red-1.0 (binder of NpF2164g6-Red state) (designed binder)
chain: B1 chain with A29S, W35L, N38D, W40F
Take B2: the Kd in [1] was over 200 µM; in [8], over 180 µM; in [9], 7 µM; in [3] it was 7.9 µM; in test [5], 7.9 µM; in [7], 7 µM.

Broadly, the Kd is the free concentration of one partner at which half of the binding sites on the other are occupied at equilibrium, for simple one-to-one binding. A high value points to lower affinity.
